{"source": "the supplement of paper PMC11502859", "data": [{"tested_on": "HEK293T", "assay": "median enrichment of reporter reads in eGFP-reduced (low/intermediate) vs eGFP-high sorted cells (eGFP-extension fusion abundance) (ratio); higher = stronger loss of eGFP-fusion protein abundance (more destabilising extension)", "values": [{"substance": "LNGVQAQRPLGVMTKCSCTTVLKELRLLPFF [DYTN]", "median enrichment": 8.97}, {"substance": "RSGTGRLLIEIHLLGGTGFP [MRNIP]", "median enrichment": 8.41}, {"substance": "LFSFQILGTETI [FBXO4]", "median enrichment": 14.6}, {"substance": "WILAELLCT [COPS4]", "median enrichment": 5.2}, {"substance": "REFYRDAEKKERSEAIYAYGSRKR [CHCHD7]", "median enrichment": 7.02}, {"substance": "LWRQALQGGPDPRVVLTVLTVYLSSPRENASFEHTVPTICIEQKDFCFTEDKRCFYFRPRREEFALNL [CNOT8]", "median enrichment": 15.4}, {"substance": "GGTPEKMPGLIVPPQDMDSMWGQEGYLLPGKAISSSPVWGGMRPAPLVNTPFPRSSLPVLGGS [CIC]", "median enrichment": 6.48}, {"substance": "CPQPGY [B3GNT7]", "median enrichment": 0.431}, {"substance": "WGGVGPGRAGVCWHRQPPLWALGGPLKGSPTRGPDESFLSGVGSQRGSPPAAWGRAWPGRVIQRVCQPLTGSPSVAATRSTEL [FAM53B]", "median enrichment": 5.84}, {"substance": "CAWSAHRLSSAFALLRCYRTLAPDVCSFTGCLICLLHPTGPPTSSDVFLIMSAMCPILLHALPPFPTTAEWPGTCLKCLFPIS [F11R]", "median enrichment": 6.63}, {"substance": "SVPRPCQPCCTGCRHCTRCEGSTPAQAEFLGSTSPAAWGTGIAHSVNGSTPAWAESLGSDLAAWGESLGSVLAAWGAGIAQSM [WNT9A]", "median enrichment": 7.93}, {"substance": "QVRLVQEHKLPPSPSPPPPGPGLKQPEDSPRGWLSPAAGSAFTWGGGAGLTLNPPPRQVGEGSHHSKCL [SLC2A4RG]", "median enrichment": 2.26}, {"substance": "RALLERLLCHPFAPERGSSQLS [DNPEP]", "median enrichment": 9.53}, {"substance": "KNAQLL [ROR1]", "median enrichment": 0.376}, {"substance": "LPLPFTLT [ATF6B]", "median enrichment": 3.98}, {"substance": "LNREKKLQVVLKEMQLFKSLCIVLILFTMCNHLENGYFYNLNNKQVLS [C8orf34]", "median enrichment": 2.33}, {"substance": "KRGCGSQGGLQGTGMSGGHQAQRKRKQREFTGPPEKSQSDVCRHLPIPASLARALLGPEQRRTCPTHTAIYSSRHRAPLPYSW [CRHR2]", "median enrichment": 4.02}, {"substance": "SAPDSASALLTFYPVSLPSPLKAGAPRELPWSSLPGRV [PKMYT1]", "median enrichment": 8.2}, {"substance": "WNEPWSPLQSSPWDRDVAGQNSQLCVCVFRLIGNSKSLLPAPSKLDGQWSGIETVV [IL18RAP]", "median enrichment": 5.03}, {"substance": "QEDFKVNFPSLFLN [CSN2]", "median enrichment": 0.654}, {"substance": "YQVIAEQMNRPPASVANTRSISLGQWTNT [LCP2]", "median enrichment": 2.43}, {"substance": "WCLHHLCSCSLKGSPYSKPPKLGDPSSP [MPIG6B]", "median enrichment": 6.53}, {"substance": "SSSSS [Ser05]", "median enrichment": 0.298}, {"substance": "SDYCKPLPLLPCLCLFSPLTYSISQPPPTCLCDLRTVPSRHWDKGRISCSPPESAWCCPLFPLCAYD [PRPF3]", "median enrichment": 2.87}, {"substance": "LPEKLCQLQGGSDFRKVV [HERPUD2]", "median enrichment": 0.919}, {"substance": "QGTCPGSS [UBE2T]", "median enrichment": 0.477}, {"substance": "WACYFHGVCQ [OR5D18]", "median enrichment": 4.25}, {"substance": "YRA [SYNE2]", "median enrichment": 0.591}, {"substance": "YQIYRVEGLIGEGRSSGSTQELDWKRSL [SON]", "median enrichment": 9.11}, {"substance": "SGAENGSCRKIRLRRLPAFCHPSHSQTPDHLKLLTLWFQIFFNLLLLLSLSNLGTFKNREMSECG [STAT3]", "median enrichment": 6.44}, {"substance": "LVTGYVKSFNVVLKSKGLLITDSRIMCS [FEM1B]", "median enrichment": 11}, {"substance": "YYSKIKYINIYIYIYFRKKKKTNKQKNPTPVDTLIFPNEDFIYGMEWKKKQLF [BMP2]", "median enrichment": 49}, {"substance": "LNRQDRLWERGSFHKRKMVGLFPE [C10orf53]", "median enrichment": 7.23}, {"substance": "RRINLQRSRQDDLAAWGLLSPRNSHVGFPLPGWPLDLSSKPFLTSS [CHI3L2]", "median enrichment": 6.12}, {"substance": "RCPCHLPSVHPESSQ [PPFIBP2]", "median enrichment": 0.445}, {"substance": "YILLADHYCGLKDDHLV [WFDC9]", "median enrichment": 7.3}, {"substance": "LSPLRNIINCRL [DKK2]", "median enrichment": 8.81}, {"substance": "SAEGKSGKMSFERCIPKASSGASGKSGPTSARPSSPSPAPPLVSSFIQQNLAGK [NKG7]", "median enrichment": 0.737}, {"substance": "YLFFFFLIEVLVL [FAM160A1]", "median enrichment": 25.1}, {"substance": "KKSSINVLSIGKYT [GRIN2A]", "median enrichment": 1.77}, {"substance": "QNASVRIKD [BORA]", "median enrichment": 0.475}, {"substance": "WATLRSVFPLPPSPHVRRPPPRCSRGS [C19orf57]", "median enrichment": 15.9}, {"substance": "WSFSHSSPSQRCDGRWTLSGEDALLLGRCSGSFSGARTEAPCDFRPGSMWACNFLHSQLGPIPGFKMVAIPEESP [SUSD1]", "median enrichment": 3.48}, {"substance": "YVPTK [ZNF334]", "median enrichment": 0.591}]}]}
